For seven substances, Kd, MFI (binding to MDCK-hFcRn cells) and MFI (cell binding to MDCK-hFcRn cells) results are on record in publication PMC6601550.

In assay [1] the target is FcRn (neonatal Fc receptor) immobilised in the FcRn binding affinity measurement (UniProt P55899). The experiment in a line: BLI.
The target of assay [2] is human neonatal Fc receptor (FcRn heavy chain FCGRT with B2M) on MDCK-hFcRn cells (human) (UniProt P55899). The experiment in a line: flow cytometry on cells. A general note: Flow cytometry measures light scatter and fluorescence of single cells or particles in a stream.

The Kd is a measure of binding affinity in units of concentration. Read a low Kd as higher affinity. Adalimumab (antibody) came in with a Kd in assay [1] of 1180 nM. The substance also gave an MFI (binding to MDCK-hFcRn cells) in assay [2] of 183 MFI. With Basiliximab (antibody), the MFI (binding to MDCK-hFcRn cells) in assay [2] came out at 203 MFI. In the case of Emicizumab (bispecific antibody), the Kd in assay [1] came out at 1230 nM. That is a single-digit micromolar value. In assay [2], Infliximab (antibody) returned an MFI (binding to MDCK-hFcRn cells) of 128 MFI. Still for that read-out and setting: with Ocrelizumab (antibody) the figure was 101 MFI. As for Rituximab (antibody), in assay [1], the Kd was 460 nM. This lies in the sub-micromolar range. In assay [2], “anti-herpes simplex virus glycoprotein D (gD)-YTE antibody” registered an MFI (cell binding to MDCK-hFcRn cells) of 1150 MFI.
